Results from patent US20230263906A1, “HIGH AFFINITY IL-2 RECEPTOR AGONISTS AND SYNTHETIC NANOCARRIER DOSE SPARING” (Selecta Biosciences, Inc., priority 2022, published 2023).

Test system: Ovalbumin-specific OTII T cells
Experiment: Example 5: adoptive transfer of ovalbumin-specific OTII T cells, Foxp3 expression
Type: in vivo, mice
Details: OTII T cells adoptively transferred prior to treatment
Experimental: However, expansion of antigen-specific Treg can be more desirable than expansion of total Treg. The ability of ImmTOR plus antigen combined with IL-2 mutein to induce and/or expand antigen-specific Treg was evaluated. Ovalbumin-specific OTII T cells were adoptively transferred into mice prior to treatment with ovalbumin and ImmTOR and/or IL-2 mutein.

B1: ovalbumin (protein, UniProt P01012 2-386, looked up)
Ovalbumin: GSIGAASMEFCFDVFKELKVHHANENIFYCPIAIMSALAMVYLGAKDSTRTQINKVVRFDKLPGFGDSIEAQCGTSVNVHSSLRDILNQITKPNDVYSFSLASRLYAEERYPILPEYLQCVKELYRGGLEPINFQTAADQARELINSWVESQTNGIIRNVLQPSSVDSQTAMVLVNAIVFKGLWEKAFKDEDTQAMPFRVTEQESKPVQMMYQIGLFRVASMASEKMKILELPFASGTMSMLVLLPDEVSGLEQLESIINFEKLTEWTSSNVMEERKIKVYLPRMKMEEKYNLTSVLMAMGITDVFSSSANLSGISSAESLKISQAVHAAHAEINEAGREVVGSAEAGVDAASVSEEFRADHPFLFCIKHIATNAVLFFGRCVSP
notes: model antigen
Q: How did the “percentage of Foxp3+OTII cells” value turn out when B1 was run?
A: ~6%
